B2: HMGR alone (enzyme, Saccharomyces cerevisiae, UniProt P12683 554-1054, looked up)
chain: VLTNKTVISGSKVKSLSSAQSSSSGPSSSSEEDDSRDIESLDKKIRPLEELEALLSSGNTKQLKNKEVAALVIHGKLPLYALEKKLGDTTRAVAVRRKALSILAEAPVLASDRLPYKNYDYDRVFGACCENVIGYMPLPVGVIGPLVIDGTSYHIPMATTEGCLVASAMRGCKAINAGGGATTVLTKDGMTRGPVVRFPTLKRSGACKIWLDSEEGQNAIKKAFNSTSRFARLQHIQTCLAGDLLFMRFRTTTGDAMGMNMISKGVEYSLKQMVEEYGWEDMEVVSVSGNYCTDKKPAAINWIEGRGKSVVAEATIPGDVVRKVLKSDVSALVELNIAKNLVGSAMAGSVGGFNAHAANLVTAVFLALGQDPAQNVESSNCITLMKEVDGDLRISVSMPSIEVGTIGGGTVLEPQGAMLDLLGVRGPHATAPGTNARQLARIVACAVLAGELSLCAALAAGHLVQSHMTHNRKPAEPTKPNNLDATDINRLKDGSVTCIKS
notes: Control prey of the GST pull-down; also called HMGR prey without an N-terminal SH3 domain

Assay [1] has as its target T1, Crk SH3 (SH3 domain of mouse Crk, residues 134-191) (mouse, UniProt Q64010 134-191).
T1 construct: range 134-191; also called mouse Crk SH3 domain
The assay is described as follows: method not described; footnote: affinities reported as measured in trans.

Assay [2] concerns the target T2, N-terminal GST-tagged HMGS with 1 C-terminal SH3 peptide ligand (Saccharomyces cerevisiae, UniProt P54839 1-491).
T2 construct: Bait of the GST pull-down; also called HMGS bait with 1 SH3 ligand; not shown: glutathione S-transferase (GST) tag at the N-terminus
T2 sequence: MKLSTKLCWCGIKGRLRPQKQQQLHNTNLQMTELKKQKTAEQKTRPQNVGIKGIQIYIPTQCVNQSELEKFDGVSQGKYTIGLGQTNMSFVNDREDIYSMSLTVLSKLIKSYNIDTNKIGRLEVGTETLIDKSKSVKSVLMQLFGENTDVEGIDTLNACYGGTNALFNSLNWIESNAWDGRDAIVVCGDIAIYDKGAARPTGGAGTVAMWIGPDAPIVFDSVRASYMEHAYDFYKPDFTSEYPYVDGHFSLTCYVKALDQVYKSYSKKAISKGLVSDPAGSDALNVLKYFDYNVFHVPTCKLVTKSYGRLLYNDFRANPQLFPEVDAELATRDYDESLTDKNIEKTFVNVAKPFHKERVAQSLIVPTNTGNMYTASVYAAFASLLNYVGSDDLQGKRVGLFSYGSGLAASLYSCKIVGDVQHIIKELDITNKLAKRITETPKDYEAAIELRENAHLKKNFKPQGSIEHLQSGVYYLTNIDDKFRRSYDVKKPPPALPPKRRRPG
Description: GST pull-down, GST-HMGS as bait, HMGR as prey. The text has this:
(§1) As a direct test of engineered enzyme co-recruitment, the bottleneck enzymatic step of the mevalonate biosynthetic pathway (HMGR-catalyzed turnover of HMG-CoA to mevalonate) was targeted for flux improvement. A synthetic complex of HMGS and HMGR was created by recombining a varying number of SH3 (Src Homology 3 domain from the adapter protein CRK) interaction ligands to the C-terminus of HMGS and recombining an SH3 domain to the N-terminus of HMGR (FIG. 2a). This simple design also allowed for control over the relative ratio of these two enzymes at the resultant complex. The ability of these proteins to interact in an SH3-dependent manner was probed in a GST pull-down experiment (FIG. 2b). […] As prey, an SH3 domain was recombined to the N-terminus of HMGR and compared to HMGR alone. No significant interaction was observed between HMGS and HMGR without engineered SH3 interactions. However, HMGR with an N-terminal SH3 domain was pulled down by GST-tagged HMGS in a ligand-dependent manner. […] Thus, the relative stoichiometries of these two enzymes were controlled at the complex by varying the number of interaction ligands tethered to HMGS.

The assay “HMGR alone” addresses B2. Description: GST pull-down, GST-HMGS as bait, HMGR as prey.
Description: as §1

Assay [3] concerns the target T3, HMGR with an N-terminal SH3 domain (mouse; Saccharomyces cerevisiae, UniProt Q64010 134-191; P12683 554-1054).
T3 construct: also called SH3 domain recombined to the N-terminus of HMGR; HMGR prey with an N-terminal SH3 domain
The assay is described as follows: GST pull-down, GST-HMGS as bait, HMGR as prey.
Description: as §1

Assay [4] deals with T4, Syn PDZ (PDZ domain of mouse α-syntrophin, residues 77-171) (mouse, UniProt Q61234 77-171).
T4 construct: range 77-171; also called Mouse α-syntrophin (syn) PDZ domain
T4 sequence (looked up): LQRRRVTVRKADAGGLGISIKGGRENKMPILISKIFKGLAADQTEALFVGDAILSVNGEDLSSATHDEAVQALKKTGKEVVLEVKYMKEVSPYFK
The assay is described as follows: method not described; footnote: affinities reported as measured in trans.

The target in assay [5] is T5, WASP GBD (GTPase Binding Domain of rat N-WASP, residues 196-274) (rat, UniProt O08816 196-274).
T5 construct: range 196-274; also called rat N-WASP GBD
The description is as above.

This is an account of results in patent publication US20110008829A1 (University of California, published 2011).

T5 sequence (O08816 196-274 limits assumed): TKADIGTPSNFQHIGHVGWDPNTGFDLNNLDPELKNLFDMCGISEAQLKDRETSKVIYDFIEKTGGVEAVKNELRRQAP
T1 sequence (Q64010 134-191 limits assumed): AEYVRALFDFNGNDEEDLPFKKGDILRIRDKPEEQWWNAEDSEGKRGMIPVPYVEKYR

B1: SH3 lig. (peptide)
peptide: PPPALPPKRRRPG
notes: also called SH3 peptide ligand
Molecule B1 showed a dissociation constant Kd in assay [1] of 100 nM.

Turning to B2, the binding result in assay [2] is “no binding”.

B3: N-terminal GST-tagged HMGS with 0 C-terminal SH3 peptide ligands (enzyme, UniProt P54839 1-491, looked up)
chain: MKLSTKLCWCGIKGRLRPQKQQQLHNTNLQMTELKKQKTAEQKTRPQNVGIKGIQIYIPTQCVNQSELEKFDGVSQGKYTIGLGQTNMSFVNDREDIYSMSLTVLSKLIKSYNIDTNKIGRLEVGTETLIDKSKSVKSVLMQLFGENTDVEGIDTLNACYGGTNALFNSLNWIESNAWDGRDAIVVCGDIAIYDKGAARPTGGAGTVAMWIGPDAPIVFDSVRASYMEHAYDFYKPDFTSEYPYVDGHFSLTCYVKALDQVYKSYSKKAISKGLVSDPAGSDALNVLKYFDYNVFHVPTCKLVTKSYGRLLYNDFRANPQLFPEVDAELATRDYDESLTDKNIEKTFVNVAKPFHKERVAQSLIVPTNTGNMYTASVYAAFASLLNYVGSDDLQGKRVGLFSYGSGLAASLYSCKIVGDVQHIIKELDITNKLAKRITETPKDYEAAIELRENAHLKKNFKPQGSIEHLQSGVYYLTNIDDKFRRSYDVKK
notes: Bait of the GST pull-down; also called HMGS bait with 0 SH3 ligands; not shown: glutathione S-transferase (GST) tag at the N-terminus
As to B3, the binding result (with HMGR alone; in assay [3]) was “no binding” each time.

B4: PDZ lig. (peptide)
peptide: GVKESLV
notes: also called PDZ ligand; GVKESLV
In turn, B4 displayed a Kd in assay [4] of 8000 nM. This lies in the single-digit micromolar range.

B5: GBD lig. (peptide)
peptide: LVGALMHVMQKRSRAIHSSDEGEDQAGDEDED
notes: also called GBD ligand
Regarding B5, the dissociation constant (Kd) in assay [5] was 1000 nM.
